Measured values reported in patent US20140274782A1, “AFFINITY REAGENTS AND METHODS FOR DETECTION, PURIFICATION, AND PROTEOMIC ANALYSIS OF METHYLATED PROTEINS” (The Board of Trustees of the Leland Stanford Junior …, priority 2013, published 2014).

T1: G9a and GLP (Homo sapiens, UniProt Q96KQ7+Q9H9B1)
T1 sequence (Q96KQ7 2-1210 limits assumed): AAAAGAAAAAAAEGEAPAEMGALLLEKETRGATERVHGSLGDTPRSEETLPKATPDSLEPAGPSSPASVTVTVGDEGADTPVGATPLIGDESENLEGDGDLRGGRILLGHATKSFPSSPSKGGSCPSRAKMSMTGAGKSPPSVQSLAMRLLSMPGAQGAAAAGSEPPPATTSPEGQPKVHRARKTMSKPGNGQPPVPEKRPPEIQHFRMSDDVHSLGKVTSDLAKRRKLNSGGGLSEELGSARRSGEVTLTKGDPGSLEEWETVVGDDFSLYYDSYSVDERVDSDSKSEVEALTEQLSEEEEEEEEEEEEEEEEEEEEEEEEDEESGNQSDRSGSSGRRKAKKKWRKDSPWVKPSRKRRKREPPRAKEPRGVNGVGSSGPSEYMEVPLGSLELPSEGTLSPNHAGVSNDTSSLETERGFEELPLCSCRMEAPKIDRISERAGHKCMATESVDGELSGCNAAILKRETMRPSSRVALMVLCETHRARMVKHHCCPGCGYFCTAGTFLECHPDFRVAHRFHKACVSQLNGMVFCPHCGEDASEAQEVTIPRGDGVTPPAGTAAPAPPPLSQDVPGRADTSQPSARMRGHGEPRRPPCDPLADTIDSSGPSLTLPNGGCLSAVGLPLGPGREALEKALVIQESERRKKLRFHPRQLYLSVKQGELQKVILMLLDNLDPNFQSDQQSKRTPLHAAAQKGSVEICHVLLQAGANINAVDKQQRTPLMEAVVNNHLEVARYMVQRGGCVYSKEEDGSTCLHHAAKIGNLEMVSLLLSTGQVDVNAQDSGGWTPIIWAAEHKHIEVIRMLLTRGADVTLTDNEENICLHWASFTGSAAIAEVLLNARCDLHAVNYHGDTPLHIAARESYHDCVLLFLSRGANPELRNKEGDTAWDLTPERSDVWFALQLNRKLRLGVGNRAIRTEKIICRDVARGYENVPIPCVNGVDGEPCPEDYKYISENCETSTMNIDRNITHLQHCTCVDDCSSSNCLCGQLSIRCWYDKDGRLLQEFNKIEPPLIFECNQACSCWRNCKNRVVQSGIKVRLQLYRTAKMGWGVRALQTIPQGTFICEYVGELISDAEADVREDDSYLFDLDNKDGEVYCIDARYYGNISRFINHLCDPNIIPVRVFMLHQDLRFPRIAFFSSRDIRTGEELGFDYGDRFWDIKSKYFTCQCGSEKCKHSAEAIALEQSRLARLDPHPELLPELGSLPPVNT
T1 sequence (Q9H9B1 2-1298 limits assumed): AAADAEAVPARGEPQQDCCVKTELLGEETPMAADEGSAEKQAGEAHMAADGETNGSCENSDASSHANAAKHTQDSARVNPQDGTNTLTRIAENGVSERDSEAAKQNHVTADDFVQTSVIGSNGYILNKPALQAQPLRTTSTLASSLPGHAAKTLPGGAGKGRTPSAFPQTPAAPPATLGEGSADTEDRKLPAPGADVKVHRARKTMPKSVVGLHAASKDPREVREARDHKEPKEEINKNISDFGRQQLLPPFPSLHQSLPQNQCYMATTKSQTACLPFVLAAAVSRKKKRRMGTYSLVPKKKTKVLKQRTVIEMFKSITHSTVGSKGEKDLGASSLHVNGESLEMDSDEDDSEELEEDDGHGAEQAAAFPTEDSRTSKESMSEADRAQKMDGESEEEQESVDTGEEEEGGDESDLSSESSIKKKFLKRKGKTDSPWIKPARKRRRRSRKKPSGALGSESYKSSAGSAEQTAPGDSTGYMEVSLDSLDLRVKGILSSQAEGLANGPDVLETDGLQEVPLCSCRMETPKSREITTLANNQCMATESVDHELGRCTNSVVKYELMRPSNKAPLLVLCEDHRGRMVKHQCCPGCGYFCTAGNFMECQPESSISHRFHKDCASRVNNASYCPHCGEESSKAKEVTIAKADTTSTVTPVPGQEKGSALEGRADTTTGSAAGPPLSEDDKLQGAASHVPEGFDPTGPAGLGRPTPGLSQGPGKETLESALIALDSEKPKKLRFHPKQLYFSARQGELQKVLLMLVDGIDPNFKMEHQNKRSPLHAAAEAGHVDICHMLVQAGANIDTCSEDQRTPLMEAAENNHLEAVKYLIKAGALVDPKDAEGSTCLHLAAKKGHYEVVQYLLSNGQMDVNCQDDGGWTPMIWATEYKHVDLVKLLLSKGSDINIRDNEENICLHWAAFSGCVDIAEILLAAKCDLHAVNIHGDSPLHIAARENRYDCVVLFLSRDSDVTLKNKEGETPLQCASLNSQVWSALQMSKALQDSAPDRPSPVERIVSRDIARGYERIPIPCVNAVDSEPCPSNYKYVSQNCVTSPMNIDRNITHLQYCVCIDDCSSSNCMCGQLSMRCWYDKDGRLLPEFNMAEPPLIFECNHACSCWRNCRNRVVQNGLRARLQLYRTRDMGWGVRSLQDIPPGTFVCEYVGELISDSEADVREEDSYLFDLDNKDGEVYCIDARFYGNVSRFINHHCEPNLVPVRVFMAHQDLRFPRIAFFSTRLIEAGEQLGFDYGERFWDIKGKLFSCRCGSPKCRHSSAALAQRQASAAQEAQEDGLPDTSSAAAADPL

B1: SEC23B (protein, UniProt Q15437 2-767, looked up)
Protein transport protein …: ATYLEFIQQNEERDGVRFSWNVWPSSRLEATRMVVPLACLLTPLKERPDLPPVQYEPVLCSRPTCKAVLNPLCQVDYRAKLWACNFCFQRNQFPPAYGGISEVNQPAELMPQFSTIEYVIQRGAQSPLIFLYVVDTCLEEDDLQALKESLQMSLSLLPPDALVGLITFGRMVQVHELSCEGISKSYVFRGTKDLTAKQIQDMLGLTKPAMPMQQARPAQPQEHPFASSRFLQPVHKIDMNLTDLLGELQRDPWPVTQGKRPLRSTGVALSIAVGLLEGTFPNTGARIMLFTGGPPTQGPGMVVGDELKIPIRSWHDIEKDNARFMKKATKHYEMLANRTAANGHCIDIYACALDQTGLLEMKCCANLTGGYMVMGDSFNTSLFKQTFQRIFTKDFNGDFRMAFGATLDVKTSRELKIAGAIGPCVSLNVKGPCVSENELGVGGTSQWKICGLDPTSTLGIYFEVVNQHNTPIPQGGRGAIQFVTHYQHSSTQRRIRVTTIARNWADVQSQLRHIEAAFDQEAAAVLMARLGVFRAESEEGPDVLRWLDRQLIRLCQKFGQYNKEDPTSFRLSDSFSLYPQFMFHLRRSPFLQVFNNSPDESSYYRHHFARQDLTQSLIMIQPILYSYSFHGPPEPVLLDSSSILADRILLMDTFFQIVIYLGETIAQWRKAGYQDMPEYENFKHLLQAPLDDAQEILQARFPMPRYINTEHGGSQARFLLSKVNPSQTHNNLYAWGQETGAPILTDDVSLQVFMDHLKKLAVSSAC
B2: DDX5 (protein, UniProt P17844 1-614, looked up)
Probable ATP-dependent RNA …: MSGYSSDRDRGRDRGFGAPRFGGSRAGPLSGKKFGNPGEKLVKKKWNLDELPKFEKNFYQEHPDLARRTAQEVETYRRSKEITVRGHNCPKPVLNFYEANFPANVMDVIARQNFTEPTAIQAQGWPVALSGLDMVGVAQTGSGKTLSYLLPAIVHINHQPFLERGDGPICLVLAPTRELAQQVQQVAAEYCRACRLKSTCIYGGAPKGPQIRDLERGVEICIATPGRLIDFLECGKTNLRRTTYLVLDEADRMLDMGFEPQIRKIVDQIRPDRQTLMWSATWPKEVRQLAEDFLKDYIHINIGALELSANHNILQIVDVCHDVEKDEKLIRLMEEIMSEKENKTIVFVETKRRCDELTRKMRRDGWPAMGIHGDKSQQERDWVLNEFKHGKAPILIATDVASRGLDVEDVKFVINYDYPNSSEDYIHRIGRTARSTKTGTAYTFFTPNNIKQVSDLISVLREANQAINPKLLQLVEDRGSGRSRGRGGMKDDRRDRYSAGKRGGFNTFRDRENYDRGYSSLLKRDFGAKTQNGVYSAANYTNGSFGSNFVSAGIQTSFRTGNPTGTYQNGYDSTQQYGSNVPNMHNGMNQQAYAYPATAAAPMIGYPMPTGYSQ
B3: CRKL (protein, UniProt P46109 1-303, looked up)
Crk-like protein: MSSARFDSSDRSAWYMGPVSRQEAQTRLQGQRHGMFLVRDSSTCPGDYVLSVSENSRVSHYIINSLPNRRFKIGDQEFDHLPALLEFYKIHYLDTTTLIEPAPRYPSPPMGSVSAPNLPTAEDNLEYVRTLYDFPGNDAEDLPFKKGEILVIIEKPEEQWWSARNKDGRVGMIPVPYVEKLVRSSPHGKHGNRNSNSYGIPEPAHAYAQPQTTTPLPAVSGSPGAAITPLPSTQNGPVFAKAIQKRVPCAYDKTALALEVGDIVKVTRMNINGQWEGEVNGRKGLFPFTHVKIFDPQNPDENE
B4: HNRPDL (protein, UniProt O14979 1-420, looked up)
Heterogeneous nuclear …: MEVPPRLSHVPPPLFPSAPATLASRSLSHWRPRPPRQLAPLLPSLAPSSARQGARRAQRHVTAQQPSRLAGGAAIKGGRRRRPDLFRRHFKSSSIQRSAAAAAATRTARQHPPADSSVTMEDMNEYSNIEEFAEGSKINASKNQQDDGKMFIGGLSWDTSKKDLTEYLSRFGEVVDCTIKTDPVTGRSRGFGFVLFKDAASVDKVLELKEHKLDGKLIDPKRAKALKGKEPPKKVFVGGLSPDTSEEQIKEYFGAFGEIENIELPMDTKTNERRGFCFITYTDEEPVKKLLESRYHQIGSGKCEIKVAQPKEVYRQQQQQQKGGRGAAAGGRGGTRGRGRGQGQNWNQGFNNYYDQGYGNYNSAYGGDQNYSGYGGYDYTGYNYGNYGYGQGYADYSGQQSTYGKASRGGGNHQNNYQPY

Biological target: T1, G9a and GLP
Test: Triple SILAC pull-down after UNC0638 treatment of 293T cells, DMSO/UNC0638 ratio of protein captured by 3×MBT;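 note: mass spectrometry (Q-Exactive) SILAC quantitation, DMSO/UNC0638 ratio computed after subtracting 3×MBTD355N mutant pull-down background, only proteins with at least twofold 3×MBT over mutant signal considered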
Format: cell-based
Set-up: cells were treated for 24 hours with UNC0638 at 2.5 μM or DMSO vehicle control; endogenous in cells; host or cells: HEK 293T
Conditions: SILAC ratio DMSO/UNC0638 of protein pulled down with 3xMBT; UNC0638 in heavy SILAC media

Molecule | Relative to UNC0638 UNC Heavy [log base 2]
B1 | 0.17
B2 | 0.31
B3 | 0.37
B4 | 0.16

Same assay, conditions: SILAC ratio DMSO/UNC0638 of protein pulled down with 3xMBT; UNC0638 in light SILAC media

Molecule | Relative to UNC0638 UNC Light [log base 2]
B1 | 0.24
B2 | 0.10
B3 | 0.03
B4 | 0.24

Same assay, conditions: average of UNC Light and UNC Heavy experiments

Molecule | Relative to UNC0638 Average [log base 2]
B1 | 0.21
B2 | 0.20
B3 | 0.20
B4 | 0.20

System: 3×MBT domain of L3MBTL1
Test: Triple SILAC pull-down, 3xMBT/3xMBTD355N ratio (cytoplasmic, nuclear and chromatin fractions of 293T cells);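 note: proteins quantified with MaxQuant, requiring at least two unique peptides and quantification in both label directions, normalized to the mean of proteins from a digested loading control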
Format: binding, human
Conditions: SILAC ratio, pull-down 3xMBT vs 3xMBTD355N; experiment with UNC0638 in heavy SILAC media
Method: For stable isotope labeling by amino acids in cell culture (SILAC) experiments HEK 293T cells were grown for at least six doublings in DMEM for SILAC supplemented with 10% dialyzed fetal bovine serum (FBS), 230 mg/L L-proline and either 100 mg/L each of L-lysine and L-arginine (“light” medium), D4-L-lysine and ^13C6-L-arginine (“medium” media), or ^13C6^15N2-L-lysine and ^13C6^15N4-L-arginine (Thermo Scientific). Heavy methyl labeling used DMEM without L-Methionine or L-Cysteine supplemented with D3^13C-L-Methionine (Sigma), L-Cysteine (Sigma) and 10% dialyzed FBS.
For UNC0638 treatments cells were treated for 24 hours with UNC0638 at 2.5 μM or DMSO vehicle control. One experiment treated cells in light media with UNC0638, the other treated cells in heavy media. Both experiments included cells in medium media treated with DMSO for negative control pull-down with 3×MBTD355N.
UNC0638 treatment experiments used a Q-Exactive mass spectrometer (ThermoFisher Scientific). A 25 cm HPLC column with 3 μm Reliasil (Orochem) was used to separate peptides over a 4 hour gradient from 0 to 75% acetonitrile. Ions were generated using a custom nanospray source flowing at 250 nL/minute. Mass spectrometry settings were 70,000 MS1 resolution, data dependent selection of up to 20 precursor ions per cycle, dynamic exclusion of 30 seconds and isolation window of 2 m/z. The nuclear fraction from the experiment using UNC0638 on cells in heavy media was additionally analyzed by 2D HPLC-MS/MS as described earlier.
Peptides were identified and quantified using MaxQuant version 1.2.2.5 (Cox and Mann, supra) with the following changes to default settings: mono- and di-methylation of lysine, and oxidation of methionine, and N-terminal acetylation as variable modifications, disabled “I=L”, up to three modifications per peptide, one missed cleavage, maximum charge of 5. Protein and peptide FDR were set to 1%, and proteins were filtered post-hoc for at least two unique peptides. Proteins were excluded from an experiment if they were not quantified in both labeling directions. Because FDR is unreliable for small numbers of peptides the modification site FDR was set to 10% and all methylated peptides were manually verified. […] Quantitative protein data was normalized to the mean value among proteins identified by analyzing 50 ng of digested loading control.
For UNC0638 experiments the treated vs. untreated ratio was determined by subtracting the value from 3×MBTD355N prior to dividing values from the light and heavy channels. Only proteins showing a two-fold signal to background ratio (3×MBT/3×MBTD355N) were evaluated as potential G9a/GLP substrates.

Molecule | 3xMBT/D355N UNC Heavy [log base 2]
B1 | 3.24
B2 | 3.00
B3 | 1.16
B4 | 2.81

Same assay, conditions: SILAC ratio, pull-down 3xMBT vs 3xMBTD355N; experiment with UNC0638 in light SILAC media

Molecule | 3xMBT/D355N UNC Light [log base 2]
B1 | 3.16
B2 | 2.92
B3 | 1.59
B4 | 3.02
